Data as given in FireProtDB (doi:10.1038/12277).

B1: Ribonuclease HI, P0A7Y4 (parent)
chain: MLKQVEIFTDGSCLGNPGPGGYGAILRYRGREKTFSAGYTRTTNNRMELMAAIVALEALKEHCEVILSTDSQYVRQGITQWIHNWKKRGWKTADKKPVKNVDLWQRLDAALGQHQIKWEWVKGHAGHPENERCDELARAAAMNPTLEDTGYQVEV

Variants of: B1
Conditions: Escherichia coli (strain K12), pH 5.5, CD, Potassium phosphate 2 mM, KF 5 mM, reversible: yes, structure 2RN2, whole UniProt chain shown; for Tm / change of melting temperature, mutant - wild type (higher = more stable): Thermal; for ddG of mutation (higher = less stable) / denaturant m value / unfolding free energy: 25 °C, Urea

**Q.** With I53A as the variant, how does the Tm read?
**A.** 35.7 °C

**Q.** And the “change of melting temperature, mutant - wild type (higher = more stable)” value (“change of melting temperature, mutant” below)?
**A.** -12.1 °C

**Q.** Which results are given for R27A?
**A.** ddG of mutation (higher = less stable): 2.2 kcal/mol; denaturant m value: 2 kcal/mol/M; unfolding free energy: 7.5 kcal/mol; Tm: 42.2 °C; change of melting temperature, mutant - wild type (higher = more stable): -5.6 °C

**Q.** For D10A, which “ddG of mutation (higher = less stable)” value is on record?
**A.** -3.3 kcal/mol

**Q.** What about the denaturant m value of the same variant?
**A.** 2.1 kcal/mol/M

**Q.** What about the unfolding free energy of the same variant?
**A.** 13 kcal/mol

**Q.** What about the Tm of the same variant?
**A.** 62.6 °C

**Q.** And the “change of melting temperature, mutant” value?
**A.** 14.8 °C

**Q.** With Q105G as the variant, how does the “ddG of mutation (higher = less stable)” value read?
**A.** 2.2 kcal/mol

**Q.** And the denaturant m value?
**A.** 2.1 kcal/mol/M

**Q.** And the unfolding free energy?
**A.** 7.5 kcal/mol

**Q.** What about the Tm of the same variant?
**A.** 38.2 °C

**Q.** What about the “change of melting temperature, mutant” value of the same variant?
**A.** -9.6 °C
